Values of other authors as cited in patent publication US20190382462A1, “METHODS AND COMPOSITIONS FOR TREATING HPA HYPERACTIVITY” (priority 2017, published 2019).
Where two headings read alike, the source gives them in different places. Where no end group is shown, it is not given here.

Assays:
[1] = human serum
CRF-BP = target: T1, CRF-BP (Homo sapiens, UniProt P24387)
T1 sequence (P24387 25-322): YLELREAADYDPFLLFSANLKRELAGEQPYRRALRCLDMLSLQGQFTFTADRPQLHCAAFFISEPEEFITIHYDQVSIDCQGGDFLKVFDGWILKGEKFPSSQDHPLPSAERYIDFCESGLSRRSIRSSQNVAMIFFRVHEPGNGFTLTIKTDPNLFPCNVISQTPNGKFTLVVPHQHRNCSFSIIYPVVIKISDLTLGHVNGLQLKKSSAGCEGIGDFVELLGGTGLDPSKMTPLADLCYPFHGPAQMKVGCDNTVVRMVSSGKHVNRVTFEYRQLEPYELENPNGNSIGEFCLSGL

CRF1 = target: T2, CRF1 (Homo sapiens, UniProt P34998)
T2 sequence (P34998 24-415): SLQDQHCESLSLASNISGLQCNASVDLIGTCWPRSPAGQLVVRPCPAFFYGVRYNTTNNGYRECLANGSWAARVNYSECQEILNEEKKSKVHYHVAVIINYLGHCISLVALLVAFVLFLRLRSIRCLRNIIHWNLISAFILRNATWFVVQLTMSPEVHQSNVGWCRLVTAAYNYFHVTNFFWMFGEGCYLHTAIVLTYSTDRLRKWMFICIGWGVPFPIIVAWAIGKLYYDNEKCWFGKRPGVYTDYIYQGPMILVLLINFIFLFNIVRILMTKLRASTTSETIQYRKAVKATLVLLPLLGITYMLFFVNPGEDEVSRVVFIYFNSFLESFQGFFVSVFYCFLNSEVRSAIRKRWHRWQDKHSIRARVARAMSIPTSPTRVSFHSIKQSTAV

Factor IX: other formulations of Factor IX alone
half-life (b170, Alprolix: terminal half-life in clinical trials): ~18 h

Human transferrin: highly abundant serum glycoprotein that carries iron
half-life [1]: 170 to 288 h

Ucn2: CRF-related peptide, selective CRF2 agonist (IVLSLDVPIGLLQILLEQARARAAREQATTNARILARVGHC; ends and bridges not checked; UniProt Q96RP3 72-112, looked up)
affinity for CRF-BP (CRF-BP): neither Ucn2 nor Ucn3 exhibits appreciable affinity

Ucn3: CRF-related peptide, selective CRF2 agonist (FTLSLDVPTNIMNLLFNIAKAKNLRAQAAANAHLMAQI; ends and bridges not checked; UniProt Q969E3 120-157, looked up)
affinity for CRF-BP (CRF-BP): neither Ucn2 nor Ucn3 exhibits appreciable affinity

aglycosylated form of human transferrin: aglycosylated form, about 2-8% of the total transferrin pool
half-life [1]: 336 to 408 h

bevacizumab: therapeutic antibody
circulating serum concentration reported for therapeutic antibody (in vivo): 10 to 30 µg/mL

darbepoetin alfa
serum half-life compared to epoetin alpha and epoetin beta (in vivo): 3 fold

etanercept
half-life (b287, b290): roughly 70 hours

urocortin 1 (DNPSLSIDLTFHLLRTLLELARTQSQRERAEQNRIIFDSV; ends and bridges not checked; UniProt P55089 83-122, looked up) [Ucn1]
binding affinity for CRF1 relative to CRF (CRF1): threefold higher
